# From the RNAGym collection of RNA variant scans (doi:10.7554/elife.80360)
# B1: HDV Ribozyme (parent)
# chain: GGCCGGCAUGGUCCCAGCCUCCUCGCUGGCGCCGGCUGGGCAACAUUCCGAGGGGACCGUCCCCUCGGUAAUGGCGAAUGGGACCCA
# Variants of: B1
# Test: self-cleavage, relative activity (ratio to wild type); higher = more cleavage; co-transcriptional
row,Variant,self-cleavage
1,G59A U60A,0.979
2,U60A A77G,1.14
3,U60A A77U,0.453
4,C61G C64U,0.755
5,G59C A83U,0.469
6,G59C A83C,0.514
7,G59C A71U,1.06
8,C61A G82A,0.46
9,A56U A87G,1.02
10,C61G C84A,0.708
11,C58G C62A,0.796
12,U60A A83U,0.356
13,U60A A83C,0.554
14,U60A A83G,1.04
15,C57U G73C,0.748
16,C57U G73U,0.338
17,C57U C75G,0.0369
18,C57U C75A,0.095
19,C61A A77C,0.527
20,G59C G82A,0.32
21,C61G U65A,0.639
22,G59C G68U,1.07
23,C57G A77C,0.237
24,U60G U69G,0.755

row,Variant,self-cleavage
1,C58A C64G,1.06
2,C58A C64U,1.15
3,C61G A70C,0.944
4,C58G G80C,0.147
5,C58G G80A,0.332
6,A56U G80C,0.22
7,A56U G80A,0.358
8,A56U G80U,0.237
9,C57G C61U,0.967
10,C57U A83C,0.665
11,U60A G82A,0.373
12,C57U C85G,0.984
13,G59A G80U,0.179
14,G59A G80A,0.305
15,U60G G76C,1.09
16,G59U C66A,0.904
17,A56U G67C,0.904
18,C58A G80U,0.21
19,C57A C62G,0.85
20,C57A C62U,1.06
21,C61G G76A,0.906
22,U60G G67A,0.91
23,U60G G67C,0.98
24,U60C C63G,1.09

row,Variant,self-cleavage
1,G59C A77G,1.13
2,G59C A77U,0.534
3,C61U C86A,0.812
4,G59C C63A,1.17
5,C61U A83C,0.378
6,G59C C64U,1.14
7,C57U C84G,0.673
8,U60G C62U,1.05
9,U60A G80C,0.0354
10,C58A C85U,0.869
11,A56U U69C,0.733
12,U60A C61G,1.19
13,C58U U69A,0.89
14,C61G C63G,0.481
15,C61G G82U,0.271
16,C58G G68U,0.959
17,A56U G59U,1.08
18,G59U G68A,0.88
19,G59U G68U,1
20,C58A A71G,0.897
21,C61U C64U,1.2
22,C57A C86G,0.89
23,C61A G76U,1.05
24,G59A C61A,1.02

row,Variant,self-cleavage
1,C57G G82A,0.302
2,A56U C85U,1.12
3,C58G C84A,0.817
4,C58G C84G,0.554
5,A56U A77C,0.341
6,C61G C86U,0.772
7,C61G C86G,0.941
8,G59C C84G,0.831
9,G59A C64A,0.862
10,C57A A77C,0.314
11,C57A A77U,0.486
12,C58A G74U,0.554
13,C58A G74A,0.426
14,G59C U60A,1.09
15,C58G G81A,0.243
16,A56U C84G,0.697
17,A56U C84A,0.895
18,C57A G68C,1.06
19,U60A G67U,0.818
20,U60A G67C,1.03
21,U60A G67A,0.95
22,C57A A83C,0.684
23,U60C C64U,0.895
24,U60C G73A,0.815

row,Variant,self-cleavage
1,C58G G73C,0.582
2,C57G C66U,0.848
3,C57G C66A,0.923
4,C58G A71C,0.802
5,C58G G67U,0.892
6,C58G G67C,0.739
7,U60G G80U,0.277
8,C58A U65A,0.9
9,U60A A71G,1.12
10,U60A A71U,1.03
11,G59A C66A,0.867
12,U60A G73U,0.475
13,C57G G80C,0.125
14,C61U A78G,0.87
15,G59U A71U,0.862
16,C61G G68U,0.964
17,C61U A87G,0.933
18,C61U A87C,0.784
19,G59A G73A,0.665
20,G59A G73C,0.394
21,C58G C85G,0.95
22,C58G C85U,0.956
23,G59U G81U,0.433
24,G59A U79G,0.906

row,Variant,self-cleavage
1,C58G U60C,1.2
2,C57A C61A,1.05
3,C57A C85U,1.05
4,A56U A71U,0.864
5,A56U A71G,0.762
6,A56U C61G,0.997
7,A56U C61A,0.943
8,C58G U65A,0.944
9,C58A C62A,1.26
10,U60G U79C,0.203
11,U60C A71C,1.27
12,U60G U72C,0.489
13,U60C G81A,0.604
14,A56U G68C,0.872
15,C58G A70U,0.929
16,C58G A70G,1.03
17,C58G U79C,0.366
18,G59C G81A,0.69
19,G59A A70C,0.982
20,C57U G80U,0.147
21,C57G G67C,0.923
22,C57G G67U,0.8
23,C61U C63U,0.958
24,C57U A70C,0.855

row,Variant,self-cleavage
1,C58A C61U,0.972
2,C58A C61G,1.03
3,C57U U72A,0.657
4,C57U U72C,0.566
5,C61A G81C,0.287
6,G59U C61G,1.2
7,G59U C61A,0.968
8,C57U G67C,1.11
9,C57G A87U,0.861
10,U60C G67C,0.554
11,C61G G67A,0.743
12,C58G C63A,0.813
13,C57U G74U,0.548
14,U60C C75U,0.203
15,C61A A78U,0.131
16,A56U C66U,0.923
17,C61A C62U,1.01
18,G59A C84U,0.73
19,G59C A87U,0.981
20,C58U A87G,0.876
21,G59U C63A,0.935
22,G59C G67C,0.929
23,C58G G76U,1.11
